Data from US20050114927A1 (RUTGERS THE STATE UNIVERSITY, published 2005).

Biological target: T1, Yeast wild-type ribosomal protein L3 (rpl3), in vitro synthesized, free form (Saccharomyces cerevisiae (yeast), UniProt P14126 1-387)
T1 construct: also called wild-type L3; radiolabeled L3
Assay: co-immunoprecipitation, isolated proteins in vitro

T1 sequence (P14126 whole entry): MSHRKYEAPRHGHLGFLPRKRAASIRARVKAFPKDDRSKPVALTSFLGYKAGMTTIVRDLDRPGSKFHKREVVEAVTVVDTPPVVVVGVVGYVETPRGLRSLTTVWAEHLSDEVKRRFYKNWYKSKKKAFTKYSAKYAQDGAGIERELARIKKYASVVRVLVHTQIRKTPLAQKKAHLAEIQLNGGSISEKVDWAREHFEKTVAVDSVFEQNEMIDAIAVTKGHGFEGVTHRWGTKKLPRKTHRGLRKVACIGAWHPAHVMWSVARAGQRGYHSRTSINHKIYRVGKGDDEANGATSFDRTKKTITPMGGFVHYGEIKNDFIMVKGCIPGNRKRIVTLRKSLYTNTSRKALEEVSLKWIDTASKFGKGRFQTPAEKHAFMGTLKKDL

B1: Pokeweed antiviral protein (PAP) (enzyme)
chain: VNTIIYNVGSTTISKYATFLNDLRNEAKDPSLKCYGIPMLPNTNTNPKYVLVELQGSNKKTITLMLRRNNLYVMGYSDPFETNKCRYHIFNDISGTERQDVETTLCPNANSRVSKNINFDSRYPTLESKAGVKSRSQVQLGIQILDSNIGKISGVMSFTEKTEAEFLLVAIQMVSEAARFKYIENQVKTNFNRAFNPNPKVLNLQETWGKISTAIHDAKNGVLPKPLELVDASGAKWIVLRVDEIKPDVALLNYVGGSCQTTY
notes: mature
Q: Does B1 bind?
A: Result: binds
